# Source: publication PMC9381713, “Structural features of Dnase1L3 responsible for serum antigen clearance”
# T1: Dnase1L3 CTD peptide (cleaved from SH3-CTD) (human, UniProt Q13609)
# T1 chain: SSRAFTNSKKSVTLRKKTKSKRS
# T2: Dnase1L3 R132A (human, UniProt Q13609 21-305, R132A)
# T2 sequence: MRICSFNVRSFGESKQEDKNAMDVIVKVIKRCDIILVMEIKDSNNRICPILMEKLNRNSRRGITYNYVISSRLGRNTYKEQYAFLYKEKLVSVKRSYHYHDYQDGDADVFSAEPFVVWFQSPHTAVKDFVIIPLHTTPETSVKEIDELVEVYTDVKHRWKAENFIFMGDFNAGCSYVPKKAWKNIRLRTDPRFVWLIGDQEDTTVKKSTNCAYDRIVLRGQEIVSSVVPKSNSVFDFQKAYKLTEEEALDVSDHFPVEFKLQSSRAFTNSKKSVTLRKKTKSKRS
# T3: Dnase1L3 WT (human, UniProt Q13609 21-305)
# T3 sequence: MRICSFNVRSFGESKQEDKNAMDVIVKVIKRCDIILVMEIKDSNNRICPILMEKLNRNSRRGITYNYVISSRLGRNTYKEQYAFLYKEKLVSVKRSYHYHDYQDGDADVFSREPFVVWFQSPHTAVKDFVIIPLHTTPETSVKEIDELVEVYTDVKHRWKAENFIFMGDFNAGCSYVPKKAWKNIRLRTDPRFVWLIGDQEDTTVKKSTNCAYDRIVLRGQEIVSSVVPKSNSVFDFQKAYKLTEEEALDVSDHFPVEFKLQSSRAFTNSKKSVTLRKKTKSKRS
# Columns and labels:
# Dnase1 = assay: fluorescence polarization; settings: FP: 50 mM Hepes pH 7.5 (Results say pH 7.4), 100 mM NaCl, 0.1 mM EDTA (1 mM for Dnase1L3/Dnase1), 1% glycerol, 1 mM TCEP, 0.1% PEG 6000, 20 nM dsDNA, 30 min at …
# [1] = target: T1, Dnase1L3 CTD peptide (cleaved from …); assay: fluorescence polarization; 100 mM NaCl, 0.1 mM EDTA; FP: 50 mM Hepes pH 7.5 (Results say pH 7.4), 100 mM NaCl, 0.1 mM EDTA (1 mM for Dnase1L3/Dnase1), 1% glycerol, 1 mM TCEP, 0.1% PEG 6000, 20 nM dsDNA, 30 min at; settings: protein: recombinant; tags: TEV-cleaved from His-SH3 fusion; label: 5'-FAM on strand 1; blunt
# Dnase1L3 R132A = target: T2, Dnase1L3 R132A; assay: fluorescence polarization; 1 mM EDTA; FP: 50 mM Hepes pH 7.5 (Results say pH 7.4), 100 mM NaCl, 0.1 mM EDTA (1 mM for Dnase1L3/Dnase1), 1% glycerol, 1 mM TCEP, 0.1% PEG 6000, 20 nM dsDNA, 30 min at; settings: protein: recombinant; blunt
# Dnase1L3 WT = target: T3, Dnase1L3 WT; assay: as above; settings: protein: recombinant; tags: His-MBP removed by TEV; blunt
molecule,measurement,setting,value
GTGTTCGGACTCTGCCTCAAGACGGTAGTCAACGTGCTTG (double strand) [FITC 40-mer dsDNA],Kd,Dnase1,2.9 µM
FAM 40-mer dsDNA (dsDNA) DNA 1: GTGTTCGGACTCTGCCTCAAGACGGTAGTCAACGTGCTTG DNA 2: CAAGCACGTTGACTACCGTCTTGAGGCAGAGTCCGAACAC,Kd,[1],4.9 µM
FITC 40-mer dsDNA (dsDNA) DNA 1: GTGTTCGGACTCTGCCTCAAGACGGTAGTCAACGTGCTTG DNA 2: CAAGCACGTTGACTACCGTCTTGAGGCAGAGTCCGAACAC,Kd,Dnase1L3 R132A,4.95 µM
same,Kd,Dnase1L3 WT,0.99 ± 0.33 µM
